What was measured:
[1] = biological target: Recombinant human ApoER2 (R&D Systems #3520-AR) (human) (UniProt Q14114); experiment: direct ELISA: wells coated with 1 ug/ml recombinant human ApoER2, antibody titrated, HRP anti-mouse IgG detection
[2] = biological target: Recombinant human ApoER2 (R&D Systems #3520-AR) (human) (UniProt Q14114); experiment: ELISA on plates coated with 1 µg/ml recombinant human ApoER2; sample: Apical/Luminal medium of the transwell with Empty Filter
[3] = biological target: Recombinant human ApoER2 (R&D Systems #3520-AR) (human) (UniProt Q14114); experiment: ELISA on plates coated with 1 µg/ml recombinant human ApoER2; sample: Apical/Luminal medium of the transwell with hCMEC/D3 cells
[4] = biological target: Recombinant human ApoER2 (R&D Systems #3520-AR) (human) (UniProt Q14114); experiment: ELISA on plates coated with 1 µg/ml recombinant human ApoER2; sample: Basolateral/Abluminal medium of the transwell with Empty Filter
[5] = biological target: Recombinant human ApoER2 (R&D Systems #3520-AR) (human) (UniProt Q14114); experiment: ELISA on plates coated with 1 µg/ml recombinant human ApoER2; sample: Basolateral/Abluminal medium of the transwell with hCMEC/D3 cells
[6] = biological target: Recombinant human ApoER2 (R&D Systems #3520-AR) (human) (UniProt Q14114); experiment: ELISA on plates coated with 1 µg/ml recombinant human ApoER2; sample: Basolateral/Abluminal medium of the transwell with hCMEC/D3 cells, antibody premixed with a 10-fold excess of soluble recombinant human ApoER2
[7] = biological target: Recombinant human ApoER2 (R&D Systems #3520-AR) (human) (UniProt Q14114); experiment: ELISA on plates coated with 1 µg/ml recombinant human ApoER2; sample: Apical/Luminal medium of the transwell with hCMEC/D3 cells, antibody premixed with a 10-fold excess of soluble recombinant human ApoER2 (low value put down to interference in the ELISA)

UniProt Q14114, sequence (Q14114 other isoform, or with tags, fused parts or gaps limits assumed): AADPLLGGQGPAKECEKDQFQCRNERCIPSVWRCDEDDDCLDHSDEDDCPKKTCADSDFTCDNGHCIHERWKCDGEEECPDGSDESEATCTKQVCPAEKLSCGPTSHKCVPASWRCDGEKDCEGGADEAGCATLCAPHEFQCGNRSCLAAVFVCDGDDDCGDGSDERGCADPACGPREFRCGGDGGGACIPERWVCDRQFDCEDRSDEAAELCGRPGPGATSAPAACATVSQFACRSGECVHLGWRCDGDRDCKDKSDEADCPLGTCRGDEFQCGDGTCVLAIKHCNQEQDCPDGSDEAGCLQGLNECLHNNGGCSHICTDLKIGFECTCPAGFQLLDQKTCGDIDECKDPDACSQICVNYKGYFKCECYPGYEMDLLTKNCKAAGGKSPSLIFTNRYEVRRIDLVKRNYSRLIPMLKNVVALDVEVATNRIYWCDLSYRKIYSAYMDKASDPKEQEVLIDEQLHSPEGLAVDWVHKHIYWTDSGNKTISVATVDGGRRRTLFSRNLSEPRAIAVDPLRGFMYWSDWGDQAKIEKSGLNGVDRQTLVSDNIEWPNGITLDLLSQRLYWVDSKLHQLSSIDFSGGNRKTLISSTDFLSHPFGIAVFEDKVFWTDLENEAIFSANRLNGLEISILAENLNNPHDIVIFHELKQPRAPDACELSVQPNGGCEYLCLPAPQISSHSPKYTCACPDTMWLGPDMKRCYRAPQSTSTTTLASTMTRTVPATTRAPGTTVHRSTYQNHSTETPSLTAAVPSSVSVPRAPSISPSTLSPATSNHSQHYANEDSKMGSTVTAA

IC50 [1]: 0.068 µg/mL
Volume Adjusted OD450nm [2]: 2.75 OD450nm
Volume Adjusted OD450nm [3]: 3.57 OD450nm
Volume Adjusted OD450nm [4]: 0.362 OD450nm
Volume Adjusted OD450nm [5]: 0.138 OD450nm
Volume Adjusted OD450nm [6]: 0.0789 OD450nm
Volume Adjusted OD450nm [7]: 0.537 OD450nm
Substance: mouse monoclonal anti-human ApoER2 antibody (Abcam ab58216)
